Target: Fab with lambda light chain (Cλ)
Experiment: ELISA; reference is the Fab with kappa light chain

Q: “wild-type Protein-G (C2 domain / Fab binding domain)” was tested. Which EC50 ratio, Cλ Fab over CK Fab did it give?
A: 7 fold
